FACS signal and EC50 data for 2 molecules are collected here from US20230151111A1 (AKESO BIOPHARMA, published 2023).

The target in assay [1] is T1, CD73 on cell membrane surface (MDA-MB-231, U87-MG) (human, UniProt P21589 27-549).
T1 construct: whole, on cells; also called NT5E
T1 sequence (looked up): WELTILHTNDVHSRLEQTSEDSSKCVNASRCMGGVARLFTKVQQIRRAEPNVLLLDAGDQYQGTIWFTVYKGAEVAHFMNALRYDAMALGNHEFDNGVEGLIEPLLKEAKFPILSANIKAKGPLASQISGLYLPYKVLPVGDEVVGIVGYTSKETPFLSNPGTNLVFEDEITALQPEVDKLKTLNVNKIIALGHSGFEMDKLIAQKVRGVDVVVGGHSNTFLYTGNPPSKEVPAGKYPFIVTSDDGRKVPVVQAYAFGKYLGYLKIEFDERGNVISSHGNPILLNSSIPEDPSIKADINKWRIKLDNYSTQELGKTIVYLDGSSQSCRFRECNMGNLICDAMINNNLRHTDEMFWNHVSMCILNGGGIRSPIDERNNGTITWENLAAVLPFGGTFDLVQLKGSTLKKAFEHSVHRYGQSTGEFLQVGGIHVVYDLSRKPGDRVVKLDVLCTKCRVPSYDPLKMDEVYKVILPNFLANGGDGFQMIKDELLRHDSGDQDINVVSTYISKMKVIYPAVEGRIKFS
Put plainly: flow cytometry, MDA-MB-231 cells; antibody 1.23 nM. The protocol: (§1) MDA-MB-231 cells in logarithmic phase were digested with conventional trypsin and transferred to a 1.5 mL centrifuge tube at 3×10⁵ cells/tube. 500 μL of PBSA was added, and the mixture was centrifuged at 5600 rpm for 5 min to remove the supernatant. […] The system was mixed gently and uniformly, and then was incubated on ice for 1 h. Then 500 μL of PBSA was added, and the mixture was centrifuged at 5600 rpm for 5 min to remove the supernatant. […] 500 μL of PBSA was added, and the mixture was centrifuged at 5600 rpm for 5 min to remove the supernatant. At last, 200 μL of PBSA was added to resuspend cell precipitates, and the mixture was transferred to a flow tube for FACSCalibur detection.
On the technique in general: A flow cytometer gives signals particle by particle.

Assay [2] has as its target T2, PD-1 on 293T-PD1 cell surface (human, UniProt Q15116 25-288).
T2 construct: whole, on cells
Put plainly: flow cytometry, 293T-PD1 cells; antibody 100.00 nM. The protocol:
(§2) 500 μL of PBSA was added, and the mixture was centrifuged at 5600 rpm for 5 min to remove the supernatant. […] The system was mixed gently and uniformly, and then was incubated on ice for 1 h. Then 500 μL of PBSA was added, and the mixture was centrifuged at 5600 rpm for 5 min to remove the supernatant. […] 500 μL of PBSA was added, and the mixture was centrifuged at 5600 rpm for 5 min to remove the supernatant. At last, 200 μL of PBSA was added to resuspend cell precipitates, and the mixture was transferred to a flow tube for FACSCalibur detection.

In assay [3] the target is T1, CD73 on cell membrane surface …. Kind of assay: flow cytometry, MDA-MB-231 cells; antibody 3.70 nM. As for the experimental part:
as §1

The target in assay [4] is T2, PD-1 on 293T-PD1 cell surface. Put plainly: flow cytometry, 293T-PD1 cells; antibody 0.05 nM. As for the experimental part: as §2
Assay [5] shares this target. Put plainly: flow cytometry, 293T-PD1 cells; antibody 3.70 nM. As for the experimental part: as §2
The target in assay [6] is T1, CD73 on cell membrane surface …. Put plainly: flow cytometry, MDA-MB-231 cells; antibody 0.05 nM. The protocol:
as §1

For assay [7], the target named is T2, PD-1 on 293T-PD1 cell surface. Kind of assay: flow cytometry, 293T-PD1 cells; antibody 33.33 nM. As for the experimental part:
as §2

The target is the same in assay [8]. Kind of assay: flow cytometry, 293T-PD1 cells; antibody 1.23 nM. The protocol: as §2
Assay [9] has as its target T3, human NT5E-Biotin (human, UniProt P21589 27-552, limits assumed, biotin label, site not stated).
T3 construct: Captured on streptavidin-coated plates; also called human NTSE-Biotin
T3 sequence (looked up): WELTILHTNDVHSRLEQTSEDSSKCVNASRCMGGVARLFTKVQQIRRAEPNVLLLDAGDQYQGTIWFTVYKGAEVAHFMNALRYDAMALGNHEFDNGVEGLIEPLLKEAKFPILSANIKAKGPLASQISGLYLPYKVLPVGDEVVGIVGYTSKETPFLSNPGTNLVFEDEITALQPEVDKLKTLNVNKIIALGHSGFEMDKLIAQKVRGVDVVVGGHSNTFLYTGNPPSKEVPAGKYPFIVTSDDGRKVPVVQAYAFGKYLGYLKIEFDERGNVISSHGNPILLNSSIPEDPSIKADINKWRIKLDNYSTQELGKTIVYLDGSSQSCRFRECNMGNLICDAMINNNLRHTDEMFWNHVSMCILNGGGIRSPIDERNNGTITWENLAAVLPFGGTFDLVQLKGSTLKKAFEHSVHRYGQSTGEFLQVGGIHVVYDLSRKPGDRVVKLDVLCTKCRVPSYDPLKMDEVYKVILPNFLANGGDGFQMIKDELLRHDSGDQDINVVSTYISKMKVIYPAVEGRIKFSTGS
Kind of assay: ELISA, NT5E-biotin on streptavidin. As for the experimental part: A microplate was coated with streptavidin at 2 μg/mL and then incubated at 4° C. overnight. After incubation, the microplate coated with streptavidin was washed once with PBST, and blocked with a PBS solution containing 1% BSA as a microplate blocking solution at 37° C. for 2 h. After blocking, the microplate was washed 3 times with PBST. Then, 0.5 μg/mL antigen human NTSE-Biotin was added and incubated at 37° C. for 30 min. Then, the plate was washed 3 times with PBST. The antibodies serially diluted with PBST solution (the dilution gradients for the antibody are shown in Table 3) were added to wells of the microplate. The microplate containing the test antibodies was incubated at 37° C. for 30 min, and then washed 3 times with PBST. […] After incubation, the plate was washed 4 times with PBST, TMB (Neogen, 308177) was added in the dark for chromogenesis for 5 min, and then a stop solution was added to terminate chromogenic reaction. The microplate was put into a microplate reader immediately, and the OD value of each well in the microplate was read at 450 nm. The data were analyzed and processed by SoftMax Pro 6.2.1.
Background: An ELISA detects its analyte on a solid surface through an enzyme-linked reagent.

Assay [10] deals with T1, CD73 on cell membrane surface …. Put plainly: flow cytometry, MDA-MB-231 cells; antibody 0.41 nM. The protocol: as §1

T2 sequence (Q15116 25-288): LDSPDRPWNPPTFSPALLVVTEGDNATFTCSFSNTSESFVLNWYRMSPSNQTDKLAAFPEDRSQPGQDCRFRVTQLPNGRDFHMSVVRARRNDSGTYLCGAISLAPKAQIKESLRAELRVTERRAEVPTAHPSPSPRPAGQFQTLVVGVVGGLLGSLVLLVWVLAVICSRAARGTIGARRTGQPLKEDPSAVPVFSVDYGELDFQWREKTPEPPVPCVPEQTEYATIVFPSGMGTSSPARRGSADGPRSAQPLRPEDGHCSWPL

B1: P1D7V01 (bispecific antibody, human IgG1, kappa)
heavy: not shown
light: DIQMTQSPSSMSASVGDRVTFTCRASQDINTYLSWFQQKPGKSPKTLIYRANRLVSGVPSRFSGSGSGQDYTLTISSLQPEDMATYYCLQYDEFPLTFGAGTKLELKRTVAAPSVFIFPPSDEQLKSGTASVVCLLNNFYPREAKVQWKVDNALQSGNSQESVTEQDSKDSTYSLSSTLTLSKADYEKHKVYACEVTHQGLSSPVTKSFNRGEC
notes: Morrison form IgG-scFv
A word on the EC50: it is the concentration needed to bring the measured effect to its halfway point. Consider B1, for which the FACS signal came to 272 in assay [1]; 531 in assay [2]; 572 in [3]; 26.6 in assay [4]; 531 in [5]; 23.4 in assay [6]. Also, the FACS signal in [7] was determined as 479; in [8], 307; in [10], 76.8. This molecule displayed an EC50 in assay [9] of 0.063 nM.

B2: P1D7V03 (bispecific antibody, human IgG1, kappa)
heavy: not shown
light: DIQMTQSPSSMSASVGDRVTFTCRASQDINTYLSWFQQKPGKSPKTLIYRANRLVSGVPSRFSGSGSGQDYTLTISSLQPEDMATYYCLQYDEFPLTFGAGTKLELKRTVAAPSVFIFPPSDEQLKSGTASVVCLLNNFYPREAKVQWKVDNALQSGNSQESVTEQDSKDSTYSLSSTLTLSKADYEKHKVYACEVTHQGLSSPVTKSFNRGEC
notes: Morrison form IgG-scFv
Regarding B2, the FACS signal in assay [1] amounted to 233; in assay [2], 343; in assay [3], 458; in assay [4], 24.1; in [5], 385; in assay [6] it was 17. Also, the FACS signal came out at 808 in assay [7], 289 in assay [8] and 106 in assay [10]. In assay [9], this molecule yielded an EC50 of 0.068 nM.
